{
  "source": "patent US20260167959A1",
  "about": "“APTAZYME-BASED REGULATABLE GENE EXPRESSION SYSTEMS” (REJUVENATE BIO INC, priority 2022, published 2026)",
  "molecules": {"B1": {"name": "RA242 (nucleic acid)", "DNA": "GCGCGTCCTGGATTCCGGAATACCAGCATCGTCTTGATGCCCTTGGAAGTCCGGCGCGGAAACGCGTACATCCAGCTGACGAGTCCCAAATAGGACGAAACGCGC", "modifications": "expressed or natural sequence"}, "B2": {"name": "RA248 (nucleic acid)", "DNA": "GCGCGTCCTGGATTCGCGGAAACGCGTACATCCAGCTGACGAGTCCAGTGATACCAGCATCGTCTTGATGCCCTTGGCAGCACTCAAATAGGACGAAACGCGC", "modifications": "expressed or natural sequence"}, "B3": {"name": "RA210: SEQ ID NO 210; theophylline inducible aptazyme (nucleic acid)", "chain": "GCTGTCACCGGAATACCAGCATCGTCTTGATGCCCTTGGAAGTCCGGTCTGATGAGTCCAAAAAGGACGAAACAGC", "modifications": "chemistry not given here", "notes": "theophylline inducible aptazyme"}, "B4": {"name": "RA243 (nucleic acid)", "DNA": "GCGCGTCCTGGATTCGCGGAAACGCGTACATCCAGCCCGGAATACCAGCATCGTCTTGATGCCCTTGGAAGTCCGGTGACGAGTCCCAAATAGGACGAAACGCGC", "modifications": "expressed or natural sequence"}, "B5": {"name": "RA244 (nucleic acid)", "DNA": "GCGCGTCCTGGATTCGCGGAAACGCGTCCGGAATACCAGCATCGTCTTGATGCCCTTGGAAGTCCGGACATCCAGCTGACGAGTCCCAAATAGGACGAAACGCGC", "modifications": "expressed or natural sequence"}, "B6": {"name": "RA250 (nucleic acid)", "DNA": "GCGCGAGTGATACCAGCATCGTCTTGATGCCCTTGGCAGCACTTCCTGGATTCGCGGAAACGCGTACATCCAGCTGACGAGTCCCAAATAGGACGAAACGCGC", "modifications": "expressed or natural sequence"}, "B7": {"name": "RA246 (nucleic acid)", "DNA": "GCGCGTCCTGGATTCGCGGAGAATACCAGCATCGTCTTGATGCCCTTGGAAGTCTCGAAACGCGTACATCCAGCTGACGAGTCCCAAATAGGACGAAACGCGC", "modifications": "expressed or natural sequence"}, "B8": {"name": "RA024 (nucleic acid)", "DNA": "GCGCGTCCTGGATTCGCGGAAACGCGTACATCCAGCTGACGAGTCCCAAATAGGACAGTGATACCAGCATCGTCTTGATGCCCTTGGCAGCACTGAAACGCGC", "modifications": "expressed or natural sequence"}, "B9": {"name": "RA247 (nucleic acid)", "DNA": "GCGCGTCCTGGATTCGCGGAAACGCGTACATCCAGCTGAGGAATACCAGCATCGTCTTGATGCCCTTGGAAGTCCCGAGTCCCAAATAGGACGAAACGCGC", "modifications": "expressed or natural sequence"}, "B10": {"name": "RA245 (nucleic acid)", "DNA": "GGGAATACCAGCATCGTCTTGATGCCCTTGGAAGTCCCGCGTCCTGGATTCGCGGAAACGCGTACATCCAGCTGACGAGTCCCAAATAGGACGAAACGCGC", "modifications": "expressed or natural sequence"}, "B11": {"name": "RA249 (nucleic acid)", "DNA": "GCGCGTCCTGGATTCGCGGAAACGCGTACATCCACCGGAATACCAGCATCGTCTTGATGCCCTTGGAAGTCCGGGCTGACGAGTCCCAAATAGGACGAAACGCGC", "modifications": "expressed or natural sequence"}},
  "data": [
    {"test_system": "Renilla luciferase RNA", "test": "Barcoded aptazyme variant library screen: un-cleaved Renilla luciferase RNA by barcode read counts, HEK293-T cells", "assay_type": "cell-based", "details": "un-cleaved Renilla luciferase RNA, HEK293-T cells cultured with 1 mM theophylline (ON) over without theophylline (OFF); barcode read counts, triplicate", "procedure,_shortened": "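Barcode sequencing of cDNA versus DNA, normalized per aptazyme, gave the un-cleaved Renilla luciferase RNA fraction and fold-change with versus without theophylline (triplicates). Library: T3H48 ribozyme with one of seven theophylline aptamer variants inserted at each position, placed in the Renilla 3′ UTR of a dual-luciferase vector.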", "units": {"Fold change in RNA expression between the ON state and the OFF state": "fold"}, "values": [
      {"molecule": "B1", "Fold change in RNA expression between the ON state and the OFF state": 1.1},
      {"molecule": "B2", "Fold change in RNA expression between the ON state and the OFF state": 1.1},
      {"molecule": "B3", "Fold change in RNA expression between the ON state and the OFF state": 1.2},
      {"molecule": "B4", "Fold change in RNA expression between the ON state and the OFF state": 1.1},
      {"molecule": "B5", "Fold change in RNA expression between the ON state and the OFF state": 1.1},
      {"molecule": "B6", "Fold change in RNA expression between the ON state and the OFF state": 1.1},
      {"molecule": "B7", "Fold change in RNA expression between the ON state and the OFF state": 1.1},
      {"molecule": "B8", "Fold change in RNA expression between the ON state and the OFF state": 2.6},
      {"molecule": "B9", "Fold change in RNA expression between the ON state and the OFF state": 1.1},
      {"molecule": "B10", "Fold change in RNA expression between the ON state and the OFF state": 1.1},
      {"molecule": "B11", "Fold change in RNA expression between the ON state and the OFF state": 1.1}
    ]},
    {"test_system": "GFP", "test": "not given", "details": "HEK293-T cells, dual FP plasmid, 24 hours post-transfection", "units": {"Fold-change in GFP expression, presence of theophylline over absence of theophylline": "×"}, "values": [
      {"molecule": "B3", "Fold-change in GFP expression, presence of theophylline over absence of theophylline": 2.55}
    ]}
  ]
}
